Experimental findings from patent US20250313631A1 (HUMMINGBIRD BIOSCIENCE PTE, published 2025) are described below.

B1: anti-VISTA clone 4M2-C12 IgG1 (antibody)
heavy: not shown
light: DIVITQTPAILSTSPGEKVTMTCRASSSVGYIHWYQQKPGSSPKPWIYATSNLASGVPARFSGSGSGTSNSLTITRVEAEDAATYYCQQWSSYPPITFGGGTKLEVKRTVAAPSVFIFPPSDEQLKSGTASVVCLLNNFYPREAKVQWKVDNALQSGNSQESVTEQDSKDSTYSLSSTLTLSKADYEKHKVYACEVTHQGLSSPVTKSFNRGEC
notes: mouse variable regions on human IgG1/kappa constant regions; also called V4; V4pr
B2: anti-VISTA clone V4-C24 IgG1 (antibody, V domains shown)
VH: QVQLQESGPGLVKPSDTLSLTCTVSGYSITSDYTWNWIRQTPGKGLEWIGHITYSGSVSYNPSLRSRVTISRDTSKNQFSLKLSSVTAADTATYSCARALYYPWYFDVWGTGTTVTVSS
VL: EIVLTQSPATLSLSPGERATLSCRASSSVGYIHWYQQKPGQAPRPLIYTTSYRATGIPARFSGSGSGTDNTLTISSLEPEDSAVYYCQQWSSYPPITFGGGTKLEVKR
B3: anti-VISTA clone V4-C26 IgG1 (antibody)
heavy: not shown
light: EIVLTQSPATLSLSPGERATLSCRASSSVGYIHWYQQKPGQAPRPIIYTTSNRATGIPARFSGSGSGTDNTLTISSLEPEDSAVYYCQQWSSYPPITFGGGTKLEVKRTVAAPSVFIFPPSDEQLKSGTASVVCLLNNFYPREAKVQWKVDNALQSGNSQESVTEQDSKDSTYSLSSTLTLSKADYEKHKVYACEVTHQGLSSPVTKSFNRGEC
B4: anti-VISTA clone V4-C27 IgG1 (antibody, V domains shown)
VH: B2 VH
VL: B2 VL with T49A, S51Y, Y52N
B5: V4-C26 hIgG4 (antibody)
heavy: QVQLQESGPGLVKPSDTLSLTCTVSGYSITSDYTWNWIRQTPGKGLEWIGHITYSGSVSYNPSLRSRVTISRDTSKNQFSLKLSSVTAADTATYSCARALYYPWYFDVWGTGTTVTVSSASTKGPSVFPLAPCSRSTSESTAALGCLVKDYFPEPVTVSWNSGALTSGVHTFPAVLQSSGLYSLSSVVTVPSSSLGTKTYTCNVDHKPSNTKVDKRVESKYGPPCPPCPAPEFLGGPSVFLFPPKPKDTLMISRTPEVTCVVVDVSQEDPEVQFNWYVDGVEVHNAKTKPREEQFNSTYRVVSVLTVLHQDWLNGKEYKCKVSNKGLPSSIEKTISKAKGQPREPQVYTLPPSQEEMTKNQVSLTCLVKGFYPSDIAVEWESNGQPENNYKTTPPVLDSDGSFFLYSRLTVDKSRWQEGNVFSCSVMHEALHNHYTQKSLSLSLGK
light: B3 light
notes: human IgG4 (S228P)/kappa format; also called HMBD-002; HMBD-002-V4C26

Where a chain is given by its changes, count along the chain named. Names may count otherwise.

The EC50 is the concentration giving half of the maximal effect. By Kd is commonly meant the constant that tells how readily two partners part at equilibrium. As usually defined, the koff is the rate constant with which the complex falls apart. The term kon denotes the rate constant with which the complex forms.

The first assay addresses T1, recombinant rat VISTA (His-tagged) (rat, UniProt A0ABK0L5H3 33-192).
T1 sequence: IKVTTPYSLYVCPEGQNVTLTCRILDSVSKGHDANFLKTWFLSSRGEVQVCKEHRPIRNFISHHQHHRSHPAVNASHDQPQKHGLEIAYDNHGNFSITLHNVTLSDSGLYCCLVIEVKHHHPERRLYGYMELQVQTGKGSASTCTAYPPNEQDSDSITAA
Nature of the assay: ELISA, plate coated with rat VISTA.
As for B1, the EC50 worked out at 1250 pM.
For B2, the EC50 came out at 201 pM.
On the same count and under the same terms, as for B3, the figure is 160 pM.
On to B4, for which the 50% effective concentration (EC50) was 196 pM.

In the next assay the target is T2, recombinant cynomolgus macaque VISTA (His-tagged) (cynomolgus macaque, UniProt A0A7N9IB00 33-194).
T2 construct: also called cyno VISTA; cynomolgus monkey VISTA
Put plainly: ELISA, plate coated with cyno VISTA. (In an ELISA, binding on a coated surface is turned into a signal by an enzyme label.)
Turning to B1, the EC50 worked out at 47.2 pM.
For the molecule B2, the EC50 stood at 38.5 pM.
Consider B3, for which the concentration for a half-maximal effect (EC50) was determined as 35.6 pM.
As for B4, the EC50 was found to be 32.4 pM.

The next assay concerns the target T3, human B7H6 (human, UniProt Q68D85 25-262).
T3 construct: also called NCR3LG1
T3 sequence (looked up): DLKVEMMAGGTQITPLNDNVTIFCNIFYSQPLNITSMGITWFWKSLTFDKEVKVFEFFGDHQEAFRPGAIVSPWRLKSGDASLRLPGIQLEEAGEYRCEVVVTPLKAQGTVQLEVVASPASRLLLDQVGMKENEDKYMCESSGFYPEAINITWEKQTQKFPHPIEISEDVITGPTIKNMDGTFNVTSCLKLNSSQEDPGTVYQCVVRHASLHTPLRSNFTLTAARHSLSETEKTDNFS
Nature of the assay: ELISA, plate coated with the antigen.
On to B1, for which the binding result is on record as “no binding (tested: log -7.5 M)”.

In a further assay the target is T4, human B7H7 (human, UniProt Q9UM44 23-344).
T4 construct: also called HHLA2
T4 sequence (looked up): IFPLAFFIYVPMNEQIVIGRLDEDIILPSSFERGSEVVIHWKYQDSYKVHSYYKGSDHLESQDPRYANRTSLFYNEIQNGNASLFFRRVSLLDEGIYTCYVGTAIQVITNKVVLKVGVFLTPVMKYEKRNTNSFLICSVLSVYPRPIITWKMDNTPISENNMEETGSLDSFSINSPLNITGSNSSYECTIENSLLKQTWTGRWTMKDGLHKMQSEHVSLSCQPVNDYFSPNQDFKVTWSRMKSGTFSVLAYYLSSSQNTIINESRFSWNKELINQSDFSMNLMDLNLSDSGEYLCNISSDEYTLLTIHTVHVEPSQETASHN
Nature of the assay: ELISA, plate coated with the antigen.
Turning to B1, the binding result is on record as “no binding (tested: log -7.5 M)”.

The next assay deals with T5, recombinant human VISTA (His-tagged) (human, UniProt Q9H7M9 33-194).
T5 construct: bought soluble protein (Sino Biological); also called hVISTA; human VISTA polypeptide
Nature of the assay: ELISA, plate coated with human VISTA.
B1: the concentration for a half-maximal effect (EC50) came out at 31.9 pM.
On the same count and under the same terms, as for B2, the figure is 26.8 pM.
Consider B3, for which the EC50 came to 24.1 pM.
On the same count and under the same terms, as for B4, the figure is 29.5 pM.

Another assay deals with T6, recombinant mouse VISTA (His-tagged) (mouse, UniProt Q9D659 33-191).
T6 construct: also called murine VISTA; mVISTA
T6 sequence (looked up): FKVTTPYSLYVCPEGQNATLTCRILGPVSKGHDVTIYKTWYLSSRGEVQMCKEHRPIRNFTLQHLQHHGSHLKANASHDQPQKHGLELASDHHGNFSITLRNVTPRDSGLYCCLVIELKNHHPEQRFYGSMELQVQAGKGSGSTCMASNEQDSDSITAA
Put plainly: ELISA, plate coated with mouse VISTA.
B1: the 50% effective concentration (EC50) was found to be 387 pM.
Regarding B2, the EC50 came to 30.4 pM.
B3: the EC50 was 32.5 pM.
Still for that read-out and setting: in the case of B4 it was 37.4 pM.

In a further assay the target is T5, recombinant human VISTA (His-tagged). Nature of the assay: antigen-binding ELISA; HMBD-002 in F6, day 30 at 40°C.
For B5, the EC50 came to 21.8 pM.

The next assay has the same target. Nature of the assay: BLI (Octet), 1:1 global fit, human VISTA captured.
Procedure: (§1) Finally, the biosensors were incubated for 120 sec in PBS pH 7.2 to obtain the dissociation curves. Kinetic and affinity constants were calculated by global fitting of the association and dissociation data to a 1:1 binding model.
Consider B2, for which the Kd is less than 1 pM, the koff was less than 1e-07 s⁻¹ and the kon was 373000 M⁻¹ s⁻¹.
For B3, in that order: 241 pM, 9.8e-05 s⁻¹ and 407000 M⁻¹ s⁻¹.
For B4 the same measures were 119 pM, 6.1e-05 s⁻¹ and 511000 M⁻¹ s⁻¹.

For the next assay, the target named is T6, recombinant mouse VISTA (His-tagged). Put plainly: BLI (Octet), 1:1 global fit, mouse VISTA captured.
Procedure: All measurements were performed at 25° C. with agitation at 1000 rpm. […] Sensograms were referenced for buffer effects and then fitted using the Octet QK384 user software (Pall ForteBio, USA).
On to B2, for which the Kd is 202 pM, the off-rate (koff) stood at 7.6e-05 s⁻¹ and the kon was 378000 M⁻¹ s⁻¹.
For B3 the same measures were 530 pM, 0.0002 s⁻¹ and 382000 M⁻¹ s⁻¹.
For B4, in that order: 395 pM, 0.00016 s⁻¹ and 392000 M⁻¹ s⁻¹.

The target in the next assay is T5, recombinant human VISTA (His-tagged). Nature of the assay: BLI (Octet), 1:1 global fit, His-tagged human VISTA captured. On the technique in general: Biolayer interferometry detects binding as a change in optical thickness at a sensor tip.
In the case of B2, the equilibrium dissociation constant (Kd) is less than 1 pM, the koff is less than 1e-07 s⁻¹ and the association rate constant (kon) was 384000 M⁻¹ s⁻¹.
For B3, in that order: less than 1 pM, less than 1e-07 s⁻¹ and 404000 M⁻¹ s⁻¹.
With B4, the dissociation constant Kd is less than 1 pM, the dissociation rate constant (koff) is less than 1e-07 s⁻¹ and the on-rate constant (kon) was determined as 465000 M⁻¹ s⁻¹.

Another assay concerns the target T6, recombinant mouse VISTA (His-tagged). Put plainly: BLI (Octet), 1:1 global fit, His-tagged mouse VISTA captured.
With B2, the Kd is less than 1 pM, the koff is less than 1e-07 s⁻¹ and the on-rate (kon) stood at 401000 M⁻¹ s⁻¹.
For B3 the same measures were less than 1 pM, less than 1e-07 s⁻¹ and 403000 M⁻¹ s⁻¹.
For B4 the same measures were less than 1 pM, less than 1e-07 s⁻¹ and 426000 M⁻¹ s⁻¹.

The target is the same in the next assay. The assay is described as above. This is another data set of the same source.
Consider B2, for which the Kd was less than 1 pM, the dissociation rate constant (koff) is less than 1e-07 s⁻¹ and the on-rate (kon) came out at 462000 M⁻¹ s⁻¹.
For B3, in that order: 183 pM, 7.6e-05 s⁻¹ and 413000 M⁻¹ s⁻¹.
For B4 the same measures were 137 pM, 5.5e-05 s⁻¹ and 398000 M⁻¹ s⁻¹.

The target in a further assay is T5, recombinant human VISTA (His-tagged). Nature of the assay: ELISA, plate coated with human VISTA; unit nM from the legend paragraph 697.
On to B1, for which the EC50 came to 36 pM.
On the same count and under the same terms, in the case of B2 it was 10 pM.
Same read-out and setting: in the case of B3 it was 3.4 pM.
Still for that read-out and setting: in the case of B4 it was less than 0.7 pM.

The target of a further assay is T6, recombinant mouse VISTA (His-tagged). Nature of the assay: ELISA, plate coated with mouse VISTA; unit nM from the legend paragraph 697.
On to B1, for which the EC50 amounted to 430 pM.
On to B2, for which the EC50 was 17 pM.
On to B3, for which the half-maximal effective concentration (EC50) came to 8.9 pM.
Still for that read-out and setting: as for B4, the figure is 2.3 pM.

In another assay the target is T5, recombinant human VISTA (His-tagged). Nature of the assay: ELISA, plate coated with human VISTA; unit nM from the legend paragraph 698.
In the case of B2, the half-maximal effective concentration (EC50) is 32 pM.
Still for that read-out and setting: in the case of B3 it was 38 pM; in that of B4, 37 pM.

The target of another assay is T6, recombinant mouse VISTA (His-tagged). Put plainly: ELISA, plate coated with mouse VISTA; unit nM from the legend paragraph 698.
Consider B2, for which the EC50 was 42 pM.
The same measure, in the same setting: in the case of B3 it was 58 pM; in that of B4, 47 pM.

For the next assay, the target named is T5, recombinant human VISTA (His-tagged). Nature of the assay: ELISA, plate coated with human VISTA; unit nM from the legend paragraph 699.
For the molecule B2, the EC50 is 73 pM.
Same read-out and setting: in the case of B3 it was 64 pM; in that of B4, 47 pM.

The target of the next assay is T6, recombinant mouse VISTA (His-tagged). Put plainly: ELISA, plate coated with mouse VISTA; unit nM from the legend paragraph 699.
As to B2, the concentration for a half-maximal effect (EC50) came to 116 pM.
Same read-out and setting: in the case of B3 it was 86 pM; in that of B4, 73 pM.

The target in a further assay is T7, human PD-L1 (human, UniProt Q9NZQ7 19-239).
T7 construct: captured through a His tag in the BLI experiments; also called hPD-L1; B7H1/PDL-1
T7 sequence (Q9NZQ7 19-239 limits assumed): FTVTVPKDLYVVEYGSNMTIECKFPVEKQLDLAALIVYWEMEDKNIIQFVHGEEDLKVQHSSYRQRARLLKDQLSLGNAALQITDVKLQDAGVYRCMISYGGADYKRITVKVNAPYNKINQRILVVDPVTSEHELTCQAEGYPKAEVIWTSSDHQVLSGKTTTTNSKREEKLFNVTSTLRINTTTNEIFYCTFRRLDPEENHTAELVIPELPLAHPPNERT
Put plainly: BLI (Octet), His-tagged human PD-L1 on anti-Penta-HIS biosensor, antibody 500-15.6 nM.
Procedure: as §1
For B2, the binding result is given as “no binding (tested: 500 nM)”.
Still for that read-out and setting: in the case of B3 it was “no binding (tested: 500 nM)”.
B4: the binding result is listed as “no binding (tested: 500 nM)”.
